{"source": "patent CN111434683A", "molecules": {"B1": {"name": "抗H7N9全人源单克隆抗体8D11 (antibody, V domains shown)", "VH": "QVQLVESGAEVKKPGASVKVSCKASGYIFFTSYDINWVRQATGQGLEWMGWMNPDSGDTGFAQKFQGRVTMTRNTSITTAYMELSSLTSEDTAVYYCATGNADCSGGSCYNWFDPWGQGTLVTVSS", "VL": "SSELTQDPAVSVALGQTVRITCQGDRLRSYTYASWYQQKPGQAPVLVIYGKNNRPSGIPDRFSGSSSGNTASLTITGAQAEDEADYYCNSRTSGYHLVFGGGTKLTVLV"}}, "key": {"[1]": {"target": "H7N9病毒的HA蛋白(购自ACROBiosystems) (H7N9 influenza virus)", "assay": "ELISA, negative control on coated HA"}, "[2]": {"target": "H7N9病毒的HA蛋白(购自ACROBiosystems) (H7N9 influenza virus)"}, "[3]": {"target": "H7N9病毒 A/Anhui/1/2013 (H7N9 influenza virus A/Anhui/1/2013)", "assay": "cell-based or functional assay"}, "[4]": {"target": "H7N9病毒的HA蛋白(购自ACROBiosystems) (H7N9 influenza virus)", "assay": "ELISA, supernatant of transfected 293F cells on coated HA"}}, "note": "Several values for one entry are separate records, joined by “and”; a condition that tells them apart may be missing. Equal entries are not always repeated.", "data": [{"molecule": "阴性对照", "values": [{"measurement": "450nm", "setting": "[1]", "result": "0.0675 OD450 and 0.0554 OD450"}]}, {"molecule": "B1", "values": [{"measurement": "Kd", "setting": "[2]", "result": 8.3, "unit": "nM"}, {"measurement": "IC50 (微量中和-ELISA, MDCK细胞)", "setting": "[3]", "result": 0.89, "unit": "µg/mL"}, {"measurement": "450nm", "setting": "[4]", "result": "0.956 OD450 and 0.981 OD450 and 0.742 OD450"}]}]}
